Assay results as given in the DeepSol protein solubility set.

Experiment: soluble on expression in E. coli; label from the status in PepcDB or PDB records

Sequence	soluble on expression in E. coli
MAHHHHHHMEVEGTKERARGVTTFTRADLELREAAEDHRALLAEPWASHALRKGYSGREEHTKWITETWEAFERRKEDQKLYLERHDLCLQYKAAQLSETRRLSEQKSAALVEKMMALEAARKGALLQSRHFLFVDYYDYQQFLFRNQRSFVEDEEKLLRCKLSETEDDLMCLLVIQWHLSSHLHAAREKERVEEEAAAERLREFQYRQKLEEERLREEQRIAQEKEASQAEKEQAELEKRLERKRRDAERRAKVRAEREQRRAQE	not soluble
MRGSHHHHHHTDPALRAENIMNNPVIGVVMCRNRLKGHATQTLQEKYLNAIIHAGGLPIALPHALAEPSLLEQLLPKLDGIYLPGSPSNVQPHLYGENGDEPDADPGRDLLSMAIINAALERRIPIFAICRGLQELVVATGGSLHRKLCEQPELLEHREDPELPVEQQYAPSHEVQVEEGGLLSALLPECSNFWVNSLHGQGAKVVSPRLRVEARSPDGLVEAVSVINHPFALGVQWHPEWNSSEYALSRILFEGFITACQHHIAEKQRLGLCGR	soluble
GPLGSHMSQAVQTNGTQPLSKTWELSLYELQRTPQEAITDGLEIVVSPRSLHSELMCPICLDMLKNTMTTKECLHRFCADCIITALRSGNKECPTCRKKLVSKRSLRPDPNFDALISKIYPSRDEYEAHQERVLARINKHNNQQALSHSIEEGLKIQAMNRLQRG	soluble
MGSDKIHHHHHHMKITKATDITLNDSCYLIYGNPGFGKTSVLKYIPGKTLVIDIDKSSKVLSGCENISIAEVDTHKIWDEWLNVVKELLKGAAEPFDTIVVDNVSELFRACLANLGREGKNHRVPSQADYQRVDFTILDSLRALLQLKKRIVFTAWETSDQWTDENGMIYNRAMPDIRSKILNNFLGLTDVVARLVKKTTEDGEEVRGFILQPSASVYAKNRLDDRKGCKVDELFTTELPS	not soluble
MSLASPDWQDQIIYFLMIDRFNDGDSALNDQGQNEFDPTSDKKFSGGDLVGVSDKLSYIEDLGATSIWITPPVANQWWDAEQNYGGYHGYWARDFQKVDEHFGDMESYQALAREVHARNMFLIQDIVTNHVGNFFTYDDPYSYDPSLPCQGFRLIKNALPAGQELPYPLNMNECKTDGTGSYHWTPTITDHNDPVQEKTWQLSDLDDLNTSDPEVRAYLKESYRKWIREVGVDGFRIDTVKFVEHDFWSDFLHADDGVMTQAVDTGRDNFLTFGEVFETSTPYHTEGEEKMLTYIGESGSPKQLTSVLNFPLQATMTRVFASGQPTDYLRFRLEKMMEMFPNPYIMPNFIDNHDMPRFLSQGSVNDMKQALITMMSVPGIPVIYQGTEQAMSAARDAMFAGGYREDGNYVDSFDQNSEMYLFIQELAKLRTENKVMTRGEIKVIGSDKAGAGVFAFTRTLDNDEVLVVMNTSNSPMLMNQLDVEQAGGTVFKQQIMSNWADAPEQLVADENGHVTLELPAKSAVIYSKTSSNQSVNTPDLNIQLAQDWEGKTITGDIVIAGSANANEKLNLVVDGNLETAQTITVGADGQFSVTLSTRHFAIGEQQHRFAIYSTEKKAGIEDVNFVSNLSWSNTPDDTIDDAGDAQDGVGGPNGNYSLPTDPTFDKDNSQLAINKAEVFTVGSNVRLTFTMDKITDTWLPPNGFDHVGFTIFIDLPEEAATNLSELPKINASMPNGTWSRNAVVFGWQSSIYNTKGANATTWGEAVTPAPTVTVDKANNTISMDFASDALGRPESLDGIRFYVTTWDLDGLSATYRPLEQDKGPWNFSGGASDESKIWDDLPIITLSEGHHHHHH	not soluble
NFVAPQDRIATFDNDGTLWSEKPMYFQILFMLDQIKEQAASHPDWKTTKPYSLVLSGQIDKLSLEDVLTMVQKTHSGMSSDEFTSIVQAWISTAKHPATGRPYTDMVYQPMLELLDYLDSNGFKNFIVSGGGNAFMRAWATDVYNIPSERIIGTRLSTEFVNVDGSYQVKRVPGIEVNNDKAEKPQQIYQHIGKRPIASFGNSDGDLQMLQWTTSGT	not soluble
MSKKLLIKTWGCQMNEYDSSKMADLLNAANGYELTEEPEEADVLLLNTCSIREKAQEKVFHQLGRWKTLKDKKPGVVIGVGGCVATQEGDHIRERAPYVDVIFGPQTLHRLPEMIKQSQTDDAPVMDISFPEIEKFDRLPEPRAEGATAFVSIMEGCSKYCTYCVVPYTRGEEVSRPMDDVLFEIAQLAEQGVREVNLLGQNVNAYRGPMHDGEICSFAELLRLVASIDGIDRIRFTTSHPLEFTDDIIAVYEDTPELVSFLHLPVQSGSDRILTMMKRPHTAIEYKSIIRKLRKARPDIQISSDFIVGFPGETDKDFQDTMKLIKDVDFDMSFSFIFSPRPGTPAADYPCDIPEQVKKERLYELQQTINAQAMRYSRLMLATEQRVLVEGPSKKNLMELRARTENNRVVNFEGSADLIGQFVDVKITDVFANSLRGELVRTEKDMDLRSVISPTQMMAKTRREDELGVATFTPLEHHHHHH	soluble
MINFHPNVKRAISQAAQKYGLPESFLERVAMIESKGNPNARNSKSSAGGLYQFLDSTAKQYQLNNKFDPFQATDAMARLTKDNTRYLATALGREPSQAELYLAHQQGPAGAVKLIKNPNVPASQLLGRQAVVLNGGNVEATAGDFMNHIYGLYNKTGEASNGRARQSWGNGQSAANEVVPLRGVERFQKAIQGAQARKPLMAYDTPLHENTRFQGQGIDAGALKKSVMSLVDLMRRNKDAQNQQIEMAHQQMMQQPMMTGFSQSSAHPVDLTLLIDPSRRNPVRSYGQQKKQQLQEELLRRTGAYHV	not soluble
MSTIELNKRQEHILQIVKENGPITGEHIAEKLNLTRATLRPDLAILTMSGFLEARPRVGYFYTGKTGTQLLADKLKKLQVKDFQSIPVVIHENVSVYDAICTMFLEDVGTLFVVDRDAVLVGVLSRKDLLRASIGQQELTSVPVHIIMTRMPNITVCRREDYVMDIAKHLIEKQIDALPVIKDTDKGFEVIGRVTKTNMTKILVSLSENEILAAAAAALEHHHHHH	soluble
MDLMEEMWISRPQRRMTKLSDLSDGSIARIKFYNANKEYTVDSFKIMFAEYQKSIYCNQEVIGVCHSISDYSYIVDYINNSHFRNELDIFTPEFDKKRTHHITSHKSDKDTLQVRVISNEGVIKSYDMSAIEITFEKMYHIIDKERNGYRSGQL	not soluble
MSLAEPKWLQDLKEEDYIKEDFDATGKSRYTVEGIDKNDPDWLNKAAKKVHAAEGDDYVKLDAGLLTVNQINWMLRRAFGELTYVDDNNQFLWYNRPTDPNKKMLAKRTPDQVGDTMGAVHPDIRNVIPEAKKVIYALRNKIDGHDEVKMPVPNGNRHKLILHDYKRIEDDEGNYVGTYEWVQDIYPFVKYFCETTGQKLVDDPDATTGATYKRDEVDTGTGASKHEEHVEKKQEETDTSSGASEYEGHHHHHH	soluble
MSTPHTPKPGPRPGAVPGPRPGAHAARKVVAPNVSAMNQARAFGRVDDDGTVYLIRGGETKKIGSWQAGTPEEGLQHYIHRFEDLATEVALLESRLKSHPNDASHIKEKAGEIRDGLDDAAIIGDLDSLEKRLNSIIDGADSAGEKARELKQQLQEKAIEQKQKLVAEAEEIAEKSTDWKVAGDRIREILDEWKTIKGIDRKTDDELWKLYSRARDSFNRRRGSHFAELDRGRAAARRIKEDLVEKANILKESTDWNDTAHAFKELMNEWKAAGRAPRDVDDKLWAAFKGAQDYFFNARNAVNDQRDREFAANAEAKDALIDEYTPLIDPAQGLESAREKLRELQEKWEAIGYVPRNRVREYEEKIANLEKRVTEAADAQWRRTDPAAQARAAQFISKVEEFTAQAAEAEVKGNTKKAEQLRAQAQQWQEWADAAINAVENR	not soluble
MKGVVEGQCGQQNALVGLANTFGTSNQRVAPSNAAASLLPSSSMGEQMANEFLRQQARTMAPTSFSMKSMQNNLPQASASSSLAANWTKEFQPRQNQLASQWSQQYTSSAPSMESAWRQVQAPSMTSTSSHQPITDAGMWSSEYLDTVDTSLTKSSGTQNWADDFMEQQDNYGMENTWKDAQAFEQRWEEIKRDMEKDESLQSPENYVYQEANPFTTMSDPLMEGDNLMRNGDIGNAMLAYEAAVQKDPQDARAWCKLGLAHAENEKDQLAMQAFQKCLQIDAGNKEALLGLSVSQANEGMENEALHQLDKWMSSYLGSNSTQVTTTPPLYSSFLDSDTFNRVEARFLDAARQQGATPDPDLQNALGVLYNLNRNFARAVDSLKLAISKNPTDARLWNRLGATLANGDHTAEAISAYREALKLYPTYVRARYNLGISCMQLSSYDEALKHFLSALELQKGGNDASGIWTTMRSAAIRTSNVPDNLLRAVERRDLAAVKASLV	not soluble
MGSDKIHHHHHHMPLLDIRNLTIELNTNNTKVKVLEKVSLTLNAGEIHGLVGESGSGRSLLAKAILGALGPQWTVIADRLMLDGKNLLDMSPKQRRCLMGSDIAMIFQDPSGSLDPVKTIGSQLIESMTPNKAVAFWRRGKDTYLNALKWLHKVGIKNPKSLMSCYPWELSEGECQKVMIAMAIANRPKLLIADEPTNSVELNAQAQIFRLLSQLNQLQNVSILLISHELETLVQWCDHLTVLYGGQVMESGPTDEMIAHPFHPYTKALLKNLPDYTGKMRHKSYLPTLQGSSPSLHNMPAGCRLGPRCPEAQRNCVKQPALEHQKDRYFACHFPYLNEQDTDDDAIA	not soluble
GSHMASREQTMENILKAAKKKFGERGYEGTSIQEIAKEAKVNVAMASYYFNGKENLYYEVFKKYGLANELPNFLEKNQFNPINALREYLTVFTTHIKENPEIGTLAYEEIIKESARLEKIKPYFIGSFEQLKEILQEGEKQGVFHFFSINHTIHWITSIVLFPKFKKFIDGLVPRGSGGLVPRGSGDLVSRIISALTDKPNI	soluble
MSLQTAAAPTPAPVAAAPALPQGQVNIAVGSLKCKAEKCYGGLGEGIGDALTTALLNTGKFAVYERENTAQLTEEAFLNGGATFQGADVLIFGAITQYEPQASSGGLSFMGVSVGKKSSTIAMDLRIVDAKTRRIIGATQVQGKAEGNNFNVSGLLPVNVGAQSSPQLEAAISQMLNNAAQQLLLKVPASYYKEEGHHHHHH	soluble
MGSDKIHHHHHHMSSDSRDLARSATAWPFQEARALLDERLKGKAPDKGYVLFETGYGPSGLPHIGTFGEVARTTMVRRAFSLLAPEIPTRLFAFSDDMDGLRKVPDNIPNKEMVAKHLGKPLTRIPDPFGTHESFGHHNNARLCSFLDTFGFEYEFQSATDWYKSGRFDAALLGVLKHYDEVINVVLPTLGDERRATYSPFLPVCPDTGIVLQVPVVERNVEAGTIVYKREDGKLIETPVTGGACKLQWKADWGMRWVALGVDYEMSGKDLIPSVQLSTRIATILGGRAPLNLTYELFLDDQGQKISKSKGNGLAVEDWLKYAPQESLALFMYQKPKTAKRLYFDVIPRAVDEYLAYLGKFPSEEPGKKLDNPVWHIHGGKPPAEDAHLSFNILMNLVSVCHSDDPAVIWGFIKRYAPGAAPETAPILNGLVGYAIAYFKDFVKPNMKYRKATPDEVEAFTALKDGLLALPADASVDDIQNLVYAIGKRPCFGELKAWFKACYEVLLGNDQGPRMGSFIKLFGIAETIALLDKAIAGEDM	not soluble
MSLSGAVFKTFLTSEHASWNRFNRRLHIPNEDIVDEIQLKARMQQRHHRVYPEIGDSTIVSFRGKDYAVHFIKDGPKDDYVYKVQRITPENGCFSTLFSVFSGGVTKALERKLNERHITPLSSTWFPRTPLEGILAERGLSSLLRRVQSTERLDNRAIATRASSYSVL	not soluble
MGSDKIHHHHHHMAGGSFMDDLRRGAGDLSVRASVREQDLNTYIMKVSCPARSGIVAAVSGYLARSGCNINDSSQFTDQETARFFMRLSFISEQGSGREALLDGFGSVAADFDMDYDIHDLSQKKKIVIMVSRFGHCLNDLLYRSRIGALPVEIVAVISNHLDYQKQVVNEDIPFHHIRVTPETKPEAEGAILQVVRDTGAELVVLARYMQVLSDQLCQEMSGRIINIHHSFLPSFKGANPYKQAYERGVRLIGATAHYVTADLDEGPIIEQDTIRVTHAQSGMDYVSLGRDVESQVLARAIHAHIHQRVFLNGNKTVVFPASPGEHVSERMG	not soluble
